Measured values published in US20020076800.

Target: T1, Human α2Macroglobulin, P01023
T1 chain: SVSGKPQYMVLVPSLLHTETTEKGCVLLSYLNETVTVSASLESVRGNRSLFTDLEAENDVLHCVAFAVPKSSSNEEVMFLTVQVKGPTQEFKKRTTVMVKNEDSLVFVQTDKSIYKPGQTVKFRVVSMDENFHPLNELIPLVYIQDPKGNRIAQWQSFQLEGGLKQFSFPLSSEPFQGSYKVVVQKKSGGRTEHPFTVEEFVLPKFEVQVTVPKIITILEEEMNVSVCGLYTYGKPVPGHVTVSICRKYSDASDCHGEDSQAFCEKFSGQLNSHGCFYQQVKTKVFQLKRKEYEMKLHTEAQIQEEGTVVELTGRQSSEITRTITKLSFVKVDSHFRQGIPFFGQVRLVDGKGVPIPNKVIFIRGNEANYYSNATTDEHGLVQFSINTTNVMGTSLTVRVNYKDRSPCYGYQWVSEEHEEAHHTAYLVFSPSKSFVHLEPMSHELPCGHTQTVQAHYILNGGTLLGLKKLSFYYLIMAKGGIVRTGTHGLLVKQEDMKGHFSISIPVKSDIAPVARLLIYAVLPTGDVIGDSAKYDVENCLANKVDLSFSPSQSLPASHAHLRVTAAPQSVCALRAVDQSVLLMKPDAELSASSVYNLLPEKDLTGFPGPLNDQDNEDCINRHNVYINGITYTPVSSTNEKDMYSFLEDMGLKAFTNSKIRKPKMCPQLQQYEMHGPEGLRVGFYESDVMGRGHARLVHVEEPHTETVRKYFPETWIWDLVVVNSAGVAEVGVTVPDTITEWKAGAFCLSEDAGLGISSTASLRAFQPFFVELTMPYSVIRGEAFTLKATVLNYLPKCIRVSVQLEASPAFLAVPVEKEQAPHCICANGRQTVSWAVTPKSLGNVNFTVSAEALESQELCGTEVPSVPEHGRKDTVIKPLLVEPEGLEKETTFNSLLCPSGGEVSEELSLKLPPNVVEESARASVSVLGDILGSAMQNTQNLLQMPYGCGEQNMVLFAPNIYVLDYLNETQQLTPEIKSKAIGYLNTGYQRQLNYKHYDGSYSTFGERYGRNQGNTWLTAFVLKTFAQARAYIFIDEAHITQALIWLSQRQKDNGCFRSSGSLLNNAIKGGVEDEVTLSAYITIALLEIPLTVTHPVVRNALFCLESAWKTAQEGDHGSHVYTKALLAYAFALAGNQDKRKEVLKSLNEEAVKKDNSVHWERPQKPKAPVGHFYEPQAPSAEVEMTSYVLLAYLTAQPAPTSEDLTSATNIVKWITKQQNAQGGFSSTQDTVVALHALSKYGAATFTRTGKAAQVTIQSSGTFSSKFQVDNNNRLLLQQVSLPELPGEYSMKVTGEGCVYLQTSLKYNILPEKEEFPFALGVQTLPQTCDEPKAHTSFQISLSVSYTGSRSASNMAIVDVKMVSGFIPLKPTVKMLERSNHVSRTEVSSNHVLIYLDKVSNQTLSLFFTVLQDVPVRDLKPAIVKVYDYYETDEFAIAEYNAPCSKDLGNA

B1: HipHum 35 construct no.2 (recombinant HH35 protein, catalytic domain only, with a six histidine tag at the amino terminal) (protein)
chain: HHHHHHRRSPRAPLSLSRRGWQPRGYPDGGAAQAFSKRTLSWRLLGEALSSQLSVADQRRIVALAFRMWSEVTPLDFREDLAAPGAAVDIKLGFGRGRHLGCPRAFDGSGQEFAHAWRLGDIHFDDDEHFTPPTSDTGISLLKVAVHEIGHVLGLPHTYRTGSIMQPNYIPQEPAFELDWSDRKAIQKLY
α2Macroglobulin trapping (protein gel), evidence for protease activity: αmacroglobulin capture by Hiphum 35, demonstrating that Hiphum 35 has protease activity
